Assay results as given in the RNAGym collection of RNA variant scans (doi:10.7554/elife.90254).

B1: LINE1-full (parent)
chain: UACGUAGGUGGUUUUCCCCUGAUAGUGCUAAGGGGGCCUGGAAGUUUGGACUGGGCAGAGCUCAACACAGCGUGGCAAAGUGGCUGUGGCUAGACUGCCUCUCUGGAUUCCUCGUCACUCAGCAGGGCAUCUCUGAGAGAAAUGCC

Variants of: B1
Test: self-cleavage, relative activity (ratio to wild type); higher = more cleavage; in vitro, sequencing; the parent is a self-cleaving ribozyme

Row | Variant | self-cleavage
1 | UACGUAGGUGGUUUUCCCCUGAUAGUGCUAAGGGGGCCUGGGAGUUUGGACUGGGCAGAGCUCAACACAGCGUGGCAAAGUGGCUGUGGCUAGACUGCCUCUCUGGAAUCCUCGUCACUCAGCAGGGCAUCUCUGAGAGAAAUGCC [A42G U108A] | 0.71
2 | UACGUAGGUGGUUUUCCCCUGAUAGUGCUAAGGGGGCCUGGAAGUUUGGACUGGGCAGAGCUCAACACAGCGUGGCAAAGUGGCUGUGGCUAGACUGCCUCUCUGGAUUCCUCGUCACUCAGCAGGGCAUCUCUGAGAGGAGUGCC [A140G A142G] | 1.17
3 | UACGUAGGUGGUUCUCCCCUGAUAGUGCUAAGGGGGCCUGGAAGUUUGGACUGGGCAGAGCUCAACACAGCGUGGCAAAGUGGCUGUGGCUAGACUGCCUCUCUGGGUUCCUCGUCACUCAGCAGGGCAUCUCUGAGAGAAAUGCC [U14C A107G] | 1.22
4 | UACGUAGGUGGUUUUCCCCUGAUAUUGCUAAGGGGGCCUGGAAGUUUGUACUGGGCAGAGCUCAACACAGCGUGGCAAAGUGGCUGUGGCUAGACUGCCUCUCUGGAUUCCUCGUCACUCAGCAGGGCAUCUCUGAGAGAAAUGCC [G25U G49U] | 1.21
5 | UACGUAGGUGGUCUUCCCCUGAUAGUGCUAAGGGGGCCUGGAAGUUUGGACUGGGCAGAGCUCAACACAGCGUGGCAAGGUGGCUGUGGCUAGACUGCCUCUCUGGAUUCCUCGUCACUCAGCAGGGCAUCUCUGAGAGAAAUGCC [U13C A79G] | 1.25
6 | UACGUAGGUGGUUUUCCCCUGAUAGUGCUAAGGGGGCCUGGAAGCUUGGACUGGGCAGAGCUCAACACAGCGUGGCAAAGUGGCUGUAGCUAGACUGCCUCUCUGGAUUCCUCGUCACUCAGCAGGGCAUCUCUGAGAGAAAUGCC [U45C G88A] | 0.08
7 | UACGUAGGUGGUUUUCCCCUGAUCGUGCUAAGGGGGCCUGGAAGUUUGGACUGGGCAGAGCUCGACACAGCGUGGCAAAGUGGCUGUGGCUAGACUGCCUCUCUGGAUUCCUCGUCACUCAGCAGGGCAUCUCUGAGAGAAAUGCC [A24C A64G] | 0.64
8 | UACGUAGGUGGUUUUCCCCUGAUAGUGCUAAGGGGGCCUGGAAGUUCGGACUGGGCAGAGCUCAACACUGCGUGGCAAAGUGGCUGUGGCUAGACUGCCUCUCUGGAUUCCUCGUCACUCAGCAGGGCAUCUCUGAGAGAAAUGCC [U47C A69U] | 0.06
9 | UACGUAGGUGGUUUUCCCCUGAUAGUGCUAAGGGGGCCUGGCAGUUUGGACUGGGCAGAGCUCAACACAGCGUGGCAAAGUGGCUGUGGCUAGACUGCCUCUCUGGAUUCCUCGUCACUCAGCAGGGCAUCUCUGAGGGAAAUGCC [A42C A138G] | 1.05
10 | UACGUAGGUGGUUUUCCCCUGAUAGUGCUAAGGGGGCCUGGUAGUUUGGACUGGGCAGAGCUCAACACAGCGUGGCAGAGUGGCUGUGGCUAGACUGCCUCUCUGGAUUCCUCGUCACUCAGCAGGGCAUCUCUGAGAGAAAUGCC [A42U A78G] | 0.88
11 | UACGUAGGUGGUUUUCCCCUGAUAGUGCUAAGGGGGCCUGGAAGUUUGGACUGGGCAGAGCUCAACGCAGCGCGGCAAAGUGGCUGUGGCUAGACUGCCUCUCUGGAUUCCUCGUCACUCAGCAGGGCAUCUCUGAGAGAAAUGCC [A67G U73C] | 0.66
12 | UACGUAGGUGGUUUUCCCCUGAUAGUGCUAAGGGGGCCUGGAAGUUUGGACUGGGCAGAGCUCAACACAGCGUGGCAAAGUGGCUGUGGCUAGACUGCCUCUCUGGUUUCCUCGUCACUCAGCAGGGCAUCUCUGAGAGGAAUGCC [A107U A140G] | 1.58
13 | UACGUAGGUGGUUUUCCCCUGAUAGUGCUAAGGGGGCCUGGAAGUUUGGACUGGGCAGAGCUCAACACAGCGUUGCGAAGUGGCUGUGGCUAGACUGCCUCUCUGGAUUCCUCGUCACUCAGCAGGGCAUCUCUGAGAGAAAUGCC [G74U A77G] | 1.01
14 | UACGUAGGUGGUUUUCCCCUGAUAGUGCUAAGGGGGCCUGGAAGUUUGGACUGGGCAGAGCUCUACACAGCGUGGCAAAGUGGCUGUGGCUAGACUGCCUCUCUGGAUUCCUCGUCACUCAGCAGGGCAUCUCUGGGAGAAAUGCC [A64U A136G] | 0.71
15 | UACGUAGGUGGUUUUCCCCUGAUAGUGCUAAGGGGGCCUGGAAGCUUGGACUGGGCAGAGCUCAACACAGCGUGGCAAAGUGGCUGUGGCUAGACUGCCUCUCUGGAUUCCUCGUCACUCAGCAGGGCAUUUCUGAGAGAAAUGCC [U45C C131U] | 0.93
16 | UACGUAGGUGGUUUUCCCCUGAUAGUGCUAAGGGGGCCUGGAAGUUUGGACUGGGCAGUGCUCAACACAGCGUGGCAAAGUGGCUGCGGCUAGACUGCCUCUCUGGAUUCCUCGUCACUCAGCAGGGCAUCUCUGAGAGAAAUGCC [A59U U87C] | 0.22
17 | UACGUAGGUGGUUUUCCCCUGAUAGUGCUAAGGGGGCCUGGAAGUUUGGACUGGGCAGAGCUCCACACAGCGUGGCAAAGUGGCUGUGGCUAGACUGCCUCUCUGGAUUCCUCGUCACUCAGCAGGGCAUCCCUGAGAGAAAUGCC [A64C U132C] | 0.34
18 | UACGUAGGUGGUUUUCCCCUGAUUGUGCUAAGGGGGCCUGGAAGUUCGGACUGGGCAGAGCUCAACACAGCGUGGCAAAGUGGCUGUGGCUAGACUGCCUCUCUGGAUUCCUCGUCACUCAGCAGGGCAUCUCUGAGAGAAAUGCC [A24U U47C] | 1.57
19 | UAUGUAGGUGGUUUUCCCCUGAUAGUGCUAAGGGGGCCUGGAAGUUUGGACUGGGCAGAGCUCAACACAGCGUGGCAAAGUGGCUGUGGCUAGACUGCCUCUCUGGAUUCUUCGUCACUCAGCAGGGCAUCUCUGAGAGAAAUGCC [C3U C111U] | 0.65
20 | UACGUAGGUGGUUUUCCCCUGAUAGUGCUAAGUGGGCCUGGAAGUUUGGACUGGGCAGAGCUCAACACAGCGUGGCAAAGUGGCUGUGGCUAGACUGCCUCUCUGGAUUCCUCGUCACUCAGCAGGGCAUCUCUGGGAGAAAUGCC [G33U A136G] | 1.7
